From patent US20250074942A1, “COMPOSITIONS AND METHODS FOR COVALENT PEPTIDE-BASED MODULATORS OF HLA-E” (Calico Life Sciences LLC, priority 2022, published 2025)

Biological target: HLA-E/B2M complex, refolded and biotinylated ([HLAE(hu)(22-305)]-Avitag + [B2M(h)(21-119)]) (human), P13747
Experiment: cross-linking, 10-fold excess over [HLA-E+VL9], 4 h 37 C, LC-MS

| Binder | % cross-linking with HLA-E [%] |
| --- | --- |
| VMAPRTCFL (modifications not checked) [VL9-7 Cys(mSF)] | 22 |
| VMACRTLFL (modifications not checked) [VL9-4 Cys(mSF)] | 36 |
| VMCPRTLFL (modifications not checked) [VL9-3 Cys(mSF)] | 73 |
| VMAPRTLCL (modifications not checked) [VL9-8 Cys(mSF)] | 87 |
